This is an account of results in patent publication US20220370545A1, “INTEGRIN RECEPTOR ALPHA V BETA 3 AND ITS LIGAND INVOLVED IN CHRONIC ITCH” (North Carolina State University, priority 2019, published 2022).

The subject of test [1] is non-histamine dependent (CQ) itch in mice. Kind of test: Chloroquine (CQ)-induced itch in mice. In kind it is in vivo, mouse. The conditions noted are these: i.v. cilengitide 100 nM 10 minutes prior to CQ 100 μg/10 μl. The procedure:
(§1) All behavioral experiments were conducted during the light cycle at ambient temperature (23° C.). Behavioral assessment of scratching behavior was conducted as described previously (Mishra et al., 2011). Briefly, mice were injected intradermal into the nape of the neck with periostin (R&D), histamine, and chloroquine (all Millipore-Sigma) as previously described (Shimada and LaMotte, 2008). Compounds were diluted in PBS and the same was used as a vehicle. […] Additionally, cilengitide and periostin were combined together (mix) and injected i.d. into the dorsal neck of mouse. Scratching behavior was recorded for 30 minutes and data was presented in bouts per 30 minutes for mice. […] For eye wipes assay, periostin and capsaicin were dropped on mouse cornea and counted wipes for 1-minute. […] For dog's study, periostin (25 μg/25 μl) was injected in the dorsal neck (s.c.) and behavior was recorded and quantified for 30 minutes as “duration of pruritus manifestation” (DPM), as described earlier (Paps et al., 2016). […] When different raters separately scored a single tape, the ratings indicated high interrater reliability (coefficient of correlation, r>0.95). This method of itch readout in NHP has been used and accepted (Ko and Naughton, 2000). The behavior was recorded for 30 minutes duration and number of scratches quantified. […]

The subject of test [2] is histamine-dependent itch in mice. Kind of test: Histamine-induced itch in mice. In kind it is in vivo, mouse. Conditions: i.v. cilengitide 100 nM 10 minutes prior to histamine 100 μg/10 μl. The procedure:
as §1

Test [3] addresses T1, TRPV1 receptor (Mus musculus, UniProt Q704Y3).
T1 construct: endogenous in cells; host or cells: primary mouse dorsal root ganglion neurons
Kind of test: Capsaicin-induced calcium response in DRG neurons (specificity control). In kind it is cell-based. The conditions noted are these: perfusion with 100 nM cilengitide. The procedure: Before imaging, cells were incubated in 350 μL of complete media containing 1 μM Fura-2 AM (Enzo Life Sciences, Farmingdale, New York, United States of America) for 30 min at 37° C. with 5% CO2. During imaging, the cells were perfused with a buffer containing the following: 135 mM sodium chloride, 3.2 mM potassium chloride, 2.5 mM magnesium chloride, 2.8 mM calcium chloride, 667 μM monobasic sodium phosphate, 14.2 mM sodium bicarbonate, and 10.9 mM D-glucose (all from VWR International, Radnor, Pennsylvania, United States of America) with a pH between 7.00 and 7.40. The buffer and the holding plate were kept at 37° C. while imaging. Imaging data was collected on a TE200 inverted microscope using NIS Elements software (Nikon, Melville, New York, United States of America). Cells were exposed to 340 nm and 380 nm wavelengths for 100 ms and the A340/A380 ratio was calculated. Traces were analyzed using Excel and responses greater than 10% of the baseline were counted. Each data point in the scatter plots represented one coverslip.
Calcium Imaging: Calcium imaging will be performed on the DRG neurons as previously described (Pitake et al., 2018). Briefly, DRG neurons will be incubated for longer than 30 min in DMEM containing 1 μM of a fluorescent indicator Fura-2 AM (Enzo Life Sciences, Inc., Farmingdale, N.Y., United States of America). The neurons will be perfused in a standard bath solution containing 140 mM NaCl, 5 mM KCl, 2 mM MgCl2, 2 mM CaCl2, 10 mM Hepes and 10 mM D-glucose at pH 7.4 adjusted with NaOH. A calcium-free bath solution will be prepared by omitting 2 mM CaCl2 from the standard bath solution […] adding 5 mM EGTA. Fura-2 fluorescence excited at 340 and 380 nm and emission will be monitored at 510 nm with a digital CCD camera (Andor Clara DR-4152, Andor Technology Ltd, Belfast, United Kingdom). Data will be obtained by every 100 ms using an imaging software (NIS-Elements AR 4.13.04, Nikon Corporation, Tokyo, Japan) and analyzed by Microsoft Excel (Microsoft Corporation, Redmond, Wash., United States of America). Values of calcium responses will be normalized by dividing measured values (F) with average values of initial 5 frames (F0) of each cell and described as F/F0. In this study, changes in each response to an application with F/F0>0.1 will be regarded as positive. Cells not responding to 100 mM KCl, which is applied at the end of each experiment, will be regarded as non-neuronal cells and excluded from analysis.
Additional inhibitors were studied using the calcium imaging method described in Example 3. Briefly, the Fura2-AM calcium imaging method was performed on live dorsal root ganglia (DRG) neurons (ex vivo). The DRG neurons are pre-incubated with the inhibitors P11 (Catalog #4744, Tocris Bioscience, Bristol, United Kingdom) and LM609 (Catalog #MAB1876, Millipore Sigma, Burlington, Mass., United States of America) or vehicle for 10 minutes and further stimulated with periostin or capsaicin in the presence of inhibitors. For Echistatin (Catalog #3202/100U, R&D Biosystems, Minneapolis, Minn., United States of America), MK-0429, and SB273005 (Catalog #S75-40, Selleck Chemicals Llc, Houston, Tex., United States of America), the DRG neurons were perfused with a normal Locke buffer vehicle or modified Locke buffer as described below. The values were normalized with KCl ([…]) to identify neuronal responses in all the calcium response data below.

Test [4] relates to dogs. The test can be described thus: Periostin injection in dogs, pruritus manifestations. It counts as in vivo, dog. Conditions: mouse recombinant periostin 25 μg/100 μl intradermally, neck, within 15 minutes.
For test [5], the system named is C57BL6J mice. The test can be described thus: Mouse cheek itch/pain model. It counts as in vivo. The conditions noted are these: periostin 5 μg/20 μl into the cheek. The procedure:
as §1

In test [6] the test system is mouse cornea. Kind of test: Eye wipes assay (corneal application). In kind it is in vivo. Conditions: wild-type mice, wiping measured for 1 minute. Here is the method: as §1

T1 sequence (Q704Y3 whole entry): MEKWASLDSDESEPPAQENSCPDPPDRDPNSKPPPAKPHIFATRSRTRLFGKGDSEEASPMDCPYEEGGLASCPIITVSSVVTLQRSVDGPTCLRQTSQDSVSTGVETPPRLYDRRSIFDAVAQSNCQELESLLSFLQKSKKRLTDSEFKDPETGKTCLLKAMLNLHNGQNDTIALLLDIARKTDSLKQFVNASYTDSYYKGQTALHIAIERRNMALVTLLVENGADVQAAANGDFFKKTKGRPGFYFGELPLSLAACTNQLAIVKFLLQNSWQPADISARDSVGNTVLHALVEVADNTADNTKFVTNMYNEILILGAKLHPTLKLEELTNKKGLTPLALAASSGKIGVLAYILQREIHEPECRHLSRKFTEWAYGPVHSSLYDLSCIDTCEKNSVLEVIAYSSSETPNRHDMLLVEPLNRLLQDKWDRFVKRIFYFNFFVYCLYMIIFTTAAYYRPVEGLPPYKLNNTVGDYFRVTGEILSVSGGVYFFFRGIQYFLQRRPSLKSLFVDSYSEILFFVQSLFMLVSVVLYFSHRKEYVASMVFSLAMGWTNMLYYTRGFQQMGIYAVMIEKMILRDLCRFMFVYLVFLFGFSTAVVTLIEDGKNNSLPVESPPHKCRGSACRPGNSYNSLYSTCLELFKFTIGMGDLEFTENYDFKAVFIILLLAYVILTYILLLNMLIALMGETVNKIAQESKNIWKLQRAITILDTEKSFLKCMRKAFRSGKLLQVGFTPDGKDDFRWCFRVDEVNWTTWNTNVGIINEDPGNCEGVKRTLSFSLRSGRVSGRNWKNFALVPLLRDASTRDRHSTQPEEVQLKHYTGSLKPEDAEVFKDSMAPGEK

With `CC(C)[C@H]1C(=O)N[C@@H](CCCN=C(N)N)C(=O)NCC(=O)N[C@@H](CC(=O)O)C(=O)N[C@H](Cc2ccccc2)C(=O)N1C` [cilengitide, cyclo RGDf-n(Me)V], the “CQ-induced itch (scratching bouts per 30 minutes)” value in test [1] is recorded as “inhibits”. The “histamine-induced itch (scratching bouts per 30 minutes)” value in test [2] is given as “inhibits”. The capsaicin-induced calcium response result in test [3] is given as “did not reduce”.

B1: periostin: fasciclin extracellular matrix protein, endogenous ligand of integrin αvβ3; mouse recombinant used (protein)
chain: NSYYDKVLAHSRIRGRDQGPNVCALQQILGTKKKYFSSCKNWYQGAICGKKTTVLYECCPGYMRMEGMKGCPAVMPIDHVYGTLGIVGATTTQHYSDVSKLREEIEGKGSYTYFAPSNEAWENLDSDIRRGLENNVNVELLNALHSHMVNKRMLTKDLKHGMVIPSMYNNLGLFINHYPNGVVTVNCARVIHGNQIATNGVVHVIDRVLTQIGTSIQDFLEAEDDLSSFRAAAITSDLLESLGRDGHFTLFAPTNEAFEKLPRGVLERIMGDKVASEALMKYHILNTLQCSEAITGGAVFETMEGNTIEIGCEGDSISINGIKMVNKKDIVTKNGVIHLIDEVLIPDSAKQVIELAGKQQTTFTDLVAQLGLASSLKPDGEYTLLAPVNNAFSDDTLSMDQRLLKLILQNHILKVKVGLSDLYNGQILETIGGKQLRVFVYRTAICIENSCMVRGSKQGRNGAIHIFREIIQPAEKSLHDKLRQDKRFSIFLSLLEAADLKDLLTQPGDWTLFAPTNDAFKGMTSEERELLIGDKNALQNIILYHLTPGVYIGKGFEPGVTNILKTTQGSKIYLKGVNETLLVNELKSKESDIMTTNGVIHVVDKLLYPADIPVGNDQLLELLNKLIKYIQIKFVRGSTFKEIPMTVYRPAMTKIQIEGDPDFRLIKEGETVTEVIHGEPVIKKYTKIIDGVPVEITEKQTREERIITGPEIKYTRISTGGGETGETLQKFLQKEVSKVTKFIEGGDGHLFEDEEIKRLLQGDTPAKKIPANKRVQGPRRRSREGRSQ
Regarding B1, the “itch after periostin injection in dogs” value in test [4] is “robust scratching”. In addition, the “scratching behavior, cheek injection” value in test [5] is “robust scratching behavior similar to that of histamine”. Also, the “wiping (pain behavior), cheek injection” value in test [5] (compared to capsaicin) is recorded as “did not induce wiping”. The “eye-wiping response to ocular application” value in test [6] is on record as “No eye-wiping response”.
